Laboratory results taken from publication PMC6685158.

Molecular target: NKG2D receptor on primary human NK cells (human (endogenous in primary NK cells)) (UniProt P26718)
Sequence of UniProt P26718 (P26718 whole entry): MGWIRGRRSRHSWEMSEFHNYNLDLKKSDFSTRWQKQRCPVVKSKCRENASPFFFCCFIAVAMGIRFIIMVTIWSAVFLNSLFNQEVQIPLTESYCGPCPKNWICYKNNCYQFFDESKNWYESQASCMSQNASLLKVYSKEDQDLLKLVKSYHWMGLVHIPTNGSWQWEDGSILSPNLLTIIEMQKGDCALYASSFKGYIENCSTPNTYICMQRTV

Substance: Full-length human MICA*002 on C1R-MICA*002 cells (from UniProt Q29983 24-383) (ligand)
- NK cell cytolytic activity (7-AAD uptake of CD56- target cells), fresh NK cells with target cells 4 h at 10 to 1 effector to target ratio; parental C1R control approximately 15%: 40%
